One assay addresses T1, GFP protein (Aequorea victoria (Water jellyfish) …, UniProt P42212 1-238 = GFP, biotinylated with the EZ-Link sulfo-NHS-LC-biotinylation kit for the BLI assay; unmodified in the NANEX selections).
T1 construct: Purified GFP; also called wild type GFP; biotinylated GFP
Description: BLI (Octet), biotinylated GFP on streptavidin sensors saturated with CA12760, second step CA12760 + 2nd Nb. Here is the method: The binding properties of the newly discovered GFP-specific Nanobodies were analysed by a Bio-layer interferometry (BLI) on an OctetRed (molecular devices). Streptavidin-coated Octet® biosensors were used to capture biotinylated GFP (100 nM). Next, the picomolar GFP stripper (CA12760; SEQ ID NO:1) was allowed to bind to GFP until a plateau was reached. These CA12760-saturated biosensors were next incubated separately in solutions containing each newly discovered Nb (as indicated in the legend of the figure), supplemented with CA12760 Nb. Assays were performed in HEPES 25 mM pH 7.5, NaCl 150 mM supplemented with BSA 0.1% and Tween₂₀ 0.005% at room temperature.
Epitope analysis. […] For this we loaded the Streptavidin biosensor with biotinylated GFP, next we allowed CA12760 (SEQ ID NO:1), the GFP-stripper with picomolar affinity, to bind to GFP. After washing, this biosensor loaded with the GFP-CA12760 complex was incubated with the newly discovered Nbs.
Epitope mapping of GFP Nanobodies by Bio-layer interferometry (BLI). Streptavidin-coated Octet® biosensors were used to capture biotinylated GFP (100 nM). Unbound biotinylated GFP is washed off from biosensor by two washing steps (60 seconds in buffer). Next, Streptavidin-coated Octet® biosensors with GFP were first incubated for 400 seconds with 20 nM CA12760, the GFP stripper, washed briefly, followed by an incubation of 400 seconds in a premix of 20 nM CA12760 with the different Nbs to be tested. Data were analyzed on an OctetRed (molecular devices). All assays were performed in HEPES 25 mM pH 7.5, NaCl 150 mM supplemented with BSA 0.1% and Tween₂₀ 0.005% at room temperature.
(In general: BLI is a label-free optical method that tracks binding on a fibre tip over time.)

In assay [1] the target is T2, PGI1 (native, un-tagged, from EBY100 lysate) (Saccharomyces cerevisiae, UniProt P12709 2-554).
T2 construct: mature; Endogenous untagged protein, 61 kDa band; also called YBR196C; endogenous PGI1
T2 sequence (P12709 2-554): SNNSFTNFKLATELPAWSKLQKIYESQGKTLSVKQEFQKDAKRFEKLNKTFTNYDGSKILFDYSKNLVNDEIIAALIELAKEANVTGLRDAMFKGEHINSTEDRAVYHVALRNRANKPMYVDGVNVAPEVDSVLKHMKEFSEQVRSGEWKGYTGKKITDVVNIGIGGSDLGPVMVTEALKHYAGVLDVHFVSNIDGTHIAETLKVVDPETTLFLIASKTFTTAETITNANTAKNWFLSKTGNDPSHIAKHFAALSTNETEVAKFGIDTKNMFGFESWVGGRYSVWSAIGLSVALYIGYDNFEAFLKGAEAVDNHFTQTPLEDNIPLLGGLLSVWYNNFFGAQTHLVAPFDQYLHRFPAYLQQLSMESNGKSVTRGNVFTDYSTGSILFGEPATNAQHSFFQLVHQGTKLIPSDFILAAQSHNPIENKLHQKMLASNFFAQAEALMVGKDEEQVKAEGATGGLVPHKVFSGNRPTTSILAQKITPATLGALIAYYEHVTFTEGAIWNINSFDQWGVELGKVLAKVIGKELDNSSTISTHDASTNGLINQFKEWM
In words: co-immunoprecipitation, Nb coupled to NHS-agarose beads, EBY100 yeast lysate (native target), SDS-PAGE. Here is the method:
(§1) Each PGI1-specific Nanobody was covalently linked to NHS-agarose beads. The beads that were functionalized with these PGI1-specific Nanobodies were incubated for an hour at 4° C. on a rotating device with either an EBY100 lysate or the lysate of the engineered Yeast strain expressing PGI1 (Yeast GFP fusion collection reference: GFP(+)12, H11) as a GFP-tagged protein. After washing, these beads analyzed on SDS-PAGE (FIG. 14A). Separated proteins were transferred to a PVDF membrane and the Western blot was developed with a GFP-specific antibody to confirm the presence of GFP-tagged PGI1 (FIG. 14B). 55=Nb clone CA17455 corresponding to SEQ ID NO: 15, used as trapper/stripper for PGI1, serves as a positive control.
(§2) Individual clones were isolated from the enriched sub-library by plating tenfold serial dilutions of the overnight-grown phage-infected E. coli TG1 cells in LB. 96 individual clones were picked and grown in a 96-well plate containing LB supplemented with 100 μg/mL ampicillin. Plasmids containing the Nanobody encoding genes were purified, sequenced and grouped into sequence families (Material and methods). A representative member of each sequence family was selected. Six different PGI1 specific Nanobodies, derived from four different sequence families (Nb clone CA17791 corresponding to SEQ ID NO: 46, CA17792-SEQ ID NO:47, CA17793-SEQ ID NO:48, CA17794-SEQ ID NO:49, CA17795-SEQ ID NO:50, and CA17796-SEQ ID NO:51) were selected based on their CDR3 sequences. Their encoding plasmid was transformed into the E. coli WK6 expression strain to express and purify each Nanobody of interest. The specificity of the PGI1-specific Nanobodies was confirmed by linking separate Nanobodies on NHS-agarose beads for co-immunoprecipitation assays. The beads that were functionalized with these PGI1-specific Nanobodies and incubated for an hour at 4° C. on a rotating device with either an EBY100 lysate expressing native (un-tagged) PGI1 or the lysate of the engineered yeast strain (GFP(+)12, H11) expressing PGI1 as a GFP-tagged protein. After washing, these beads were resuspended in SDS-PAGE loading dye and analyzed on SDS-PAGE (FIG. 14A). Separated proteins were also transferred to PVDF membranes and the Western blot was developed with a GFP-specific antibody to confirm the presence of the GFP-tagged PGI1 (FIG. 14B).

For a further assay, the target named is T3, GFP-tagged PGI1 (Saccharomyces cerevisiae, UniProt P12709 2-554).
T3 construct: Yeast GFP Fusion Collection strain; 88 kDa band; also called GFP-PGI1; Yeast GFP fusion collection GFP(+)12, H11; not shown: GFP tag
T3 sequence (P12709 2-554): as above
In words: co-immunoprecipitation, Nb coupled to NHS-agarose beads, lysate of the yeast strain expressing the GFP-tagged target, SDS-PAGE. Here is the method: as §1, §2

In assay [2] the target is T4, SSA1 (native, from EBY100 lysate) (Saccharomyces cerevisiae, UniProt P10591 2-642).
T4 construct: mature; Endogenous untagged protein; also called YAL005C
T4 sequence (P10591 2-642): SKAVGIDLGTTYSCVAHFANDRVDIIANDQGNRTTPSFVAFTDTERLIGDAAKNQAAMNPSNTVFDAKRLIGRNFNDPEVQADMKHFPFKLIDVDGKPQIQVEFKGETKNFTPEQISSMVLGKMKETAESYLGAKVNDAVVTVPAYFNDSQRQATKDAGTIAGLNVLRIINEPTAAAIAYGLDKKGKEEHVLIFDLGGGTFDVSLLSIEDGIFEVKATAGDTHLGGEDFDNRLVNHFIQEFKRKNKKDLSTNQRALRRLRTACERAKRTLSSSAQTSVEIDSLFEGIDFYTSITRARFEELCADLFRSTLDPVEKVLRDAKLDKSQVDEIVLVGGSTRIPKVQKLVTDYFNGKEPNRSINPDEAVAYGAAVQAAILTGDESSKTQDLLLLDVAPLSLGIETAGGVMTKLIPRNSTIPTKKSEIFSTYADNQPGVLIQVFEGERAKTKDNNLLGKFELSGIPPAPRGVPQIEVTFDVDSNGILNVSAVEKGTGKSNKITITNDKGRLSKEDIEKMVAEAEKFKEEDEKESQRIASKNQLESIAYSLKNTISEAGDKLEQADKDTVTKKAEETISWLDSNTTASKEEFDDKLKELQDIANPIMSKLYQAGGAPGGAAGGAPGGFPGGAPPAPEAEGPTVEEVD
In words: co-IP, Nb on NHS-agarose beads, EBY100 yeast lysate, SDS-PAGE.

Another assay has as its target T5, GFP-tagged SSA1 (Saccharomyces cerevisiae, UniProt P10591 2-642).
T5 construct: Yeast GFP Fusion Collection strain; also called Yeast GFP fusion collection GFP(+)10, E4; not shown: GFP tag
In words: co-immunoprecipitation, Nb coupled to NHS-agarose beads, lysate of the yeast strain expressing the GFP-tagged target, Western blot anti-GFP. Here is the method: Six SSA1-specific Nanobodies (60=Nb clone CA17560 corresponding to SEQ ID NO: 19, 61=CA17561-SEQ ID NO: 20, 62=CA17562-SEQ ID NO: 21, 63=CA17563-SEQ ID NO: 22, 64=CA17564-SEQ ID NO: 23, 65=CA17565-SEQ ID NO: 24) were characterized by co-immunoprecipitation assays. Each SSA1-specific Nanobodies was covalently linked to NHS-agarose beads. The beads that were functionalized with these SSA1-specific Nanobodies were incubated for an hour at 4° C. on a rotating device with either an EBY100 lysate or the lysate of the engineered Yeast strain expressing SSA1 (Yeast GFP fusion collection reference: GFP(+)10, E4) as a GFP-tagged protein. After washing, these beads were resuspended in SDS-PAGE loading dye and analyzed on SDS-PAGE (FIG. 6A). Separated proteins were transferred to a PVDF membrane and the Western blot (FIG. 6B) was developed with GFP-specific antibody to confirm the presence of GFP-tagged SSA1.
(Immunoblotting shows a protein as a band on a membrane.)

T5 sequence (P10591 2-642): as above

B1: CA17676 (VHH)
VHH: QVQLVESGGGLVQAGGSLRLSCAGSGGTFSAYTMGWFRQGLGEERELVACISRSGASTFYTDPVKGRFTISRDNDKNTVYLQMNNLKPEDTAVYYCAADWTVIDEITEQRSKHQTSYDYWGQGTQVTVSS
notes: C-terminal 6xHis-EPEA tag is part of the entry
With B1, in the assay with GFP protein, the binding result is given as “binds”.

B2: CA17793 (VHH)
VHH: QVQLVESGGGLVRPGGSLRLSCAASGITFSSYTMGWYRQAPGKQRELVATITTGGSTNYAVSAKGRFTISRDNANNRVTLQMNSLNSEDTAAYYCHSRFAYGPLEYWGQGTQVTVSS
notes: as for B1
With B2, the binding result (in assay [1]; with GFP-tagged PGI1) was “binds” each time.

B3: CA17562 (VHH)
VHH: QVQLVESGGGLVQPGGSLRLSCAASGFDFSRNRLNWHRQAPGKQRELVATIGSNGPRYADSVKDRFTISRDNEKNTVYLEMNSVKPEDTAVYYCAARGYWGQGTQVTVSS
notes: as for B1
B3: the binding result (in assay [2]; with GFP-tagged SSA1) was “binds” in each case.

B4: CA17517 (VHH)
VHH: QVQLVESGGGLVQPGGSLRLSCAASGRTFSNYIMGWFRQPPGKEREFVATISWSGSDTVYASSVKGRFTISRDNAKSTVYLQMNSLKPEDTAIYYCAAKDAVGYWSSDVYSEAKEYDYWGQGTQVTVSS
notes: as for B1
On to B4, for which the binding result with GFP protein is on record as “binds”.

B5: CA17674 (VHH)
VHH: QVQLVESGGGLVQPGDFLRLSCAASDRTFSNYIMGWFRQAPGKEREFVATISWSGSDTVYASSVKGRFTISRDNAKSTVYLKMNSLKPEDTAIYYCAAKYAVGYWGNDVASEAKDYNYWGQGTQVTVSS
notes: as for B1
Consider B5, for which the binding result with GFP protein is “binds”.

B6: CA17795 (VHH)
VHH: QVQLVESGGGLVQPGGSLRLSCAASGSFFNINAMAWYRQAPGKQRELVAVIASSGRTNYADSVSGRFTISRDNAKNTVYLQMNSLKPEDTAVYYCNSKIRQASWNLVLSDHWGQGTQVTVSS
notes: as for B1
For B6, the binding result (in assay [1]; in the assay with GFP-tagged PGI1) was “binds” in each case.

B7: CA17791 (VHH)
VHH: QVQLVESGGGLVQPGGSLRLSCAASGITFSSYAMGWYRQAPGKERELVARITSGGSTDYAVSVKGRFTISRDNANNLVYLQMNSLNSEDTAVYYCHSQYSYGPLEYWGQGTQVTVSS
notes: as for B1
Regarding B7, the binding result (in assay [1]; with GFP-tagged PGI1) was “binds” each time.

B8: CA17796 (VHH)
VHH: QVQLVESGGGLVQPGGSLRLSCAASGISFHSYAMGWYRQAPGKQRELVSTITTGGSTDYAVSVKGRFTISRDNAKNTVYLQMNNLNSEDTAVYYCHSQYAYGPLEYWGQGTQVTVSS
notes: as for B1
On to B8, for which the binding result (in assay [1]; with GFP-tagged PGI1) was “binds” each time.

B9: CA17792 (VHH)
VHH: QVQLVESGGGLVQPGGSLRLSCAASGISFGSYTMAWYRQAPGKQRDMVADITTGGRTNYADSVKGRFTISRDNAKNTVYLQMNSLKSEDTAVYYCKADFAYGRDLTYWGQGTQVTVSS
notes: as for B1
Turning to B9, the binding result (in assay [1]; with GFP-tagged PGI1) was “binds” throughout.

B10: CA8780 (VHH)
VHH: QVQLQESGGGLVQPGGSLRLSCAPSGPFSPNSMGWYRQAPGKQRELVAVMTIDGRTNYQDSVKGRFTISRDYVKNTAYLQMNNLKPDDTAVYICNAETRGFMHWGQGTQVTVSS
notes: Control Nanobody; C-terminal 6xHis-EPEA tag is part of the entry; also called irrelevant Nb
Consider B10, for which, in the assay with GFP protein, the binding result is listed as “no binding”.

B11: CA17520 (VHH)
VHH: QVQLVESGGGLVQTGGSLRLSCAASVRTFSNYIMGWFRQAPGKEREFVATISWSGINTYYADNVKGRFTISRDNARNTVYLQMNSLKPEDTAIYYCAAKSAVGYYHDSYASRAEEYDYWGQGTQVTVSS
notes: as for B1
For B11, in the assay with GFP protein, the binding result is recorded as “binds”.

B12: CA17794 (VHH)
VHH: QVQLVESGGGLVQPGGSLRLSCTASGVTFSRYAMSWYRQAPGKERELVATITGAGSSTNYEDSVKGRFTISRDNAKNTVYLQMNSLKPEDTAVYYCYADHYGLGYLDYWGQGTQVTVSS
notes: as for B1
For the molecule B12, the binding result (in assay [1]; with GFP-tagged PGI1) was “binds” each time.

B13: CA17519 (VHH)
VHH: QVQLVESGGGLVQPGGSLRLSCAASGRIFSIYVMGWYRQAPGKQRELVAQITNSGRTKFADSVKGRFTISRDNAKNMVYLQMNSLKAEDTAVYYCYADLDWYGGTANNDFWGQGTQVTVSS
notes: as for B1
Turning to B13, in the assay with GFP protein, the binding result is “binds”.

B14: CA17518 (VHH)
VHH: QVQLVESGGGLVQAGGSLRLSCVTSGFTFDDYAIGWFRQAPGKEREGVSSISSSDGTTYYADSVKGRFTISSDNAKNTVYLQMNNLKPEDTAVYYCAADWAAWPSIRVGVGVPAYEYDYWGQGTQVTVSS
notes: as for B1
For B14, in the assay with GFP protein, the binding result is “binds”.

B15: CA17675 (VHH)
VHH: QVQLVESGGKLVPAGDSLRLSCAASGRTFSDYIIGWFRQVSGKERKFVAAIRRSDGETVYTDSVKGRFTISRDNAKNTVYLQMNSLKPEDTAVYYCYLNNRNSRGSMDAYWGQGTQVTVSS
notes: as for B1
For B15, the binding result with GFP protein is reported as “binds”.

B16: CA17673 (VHH)
VHH: QVQLVESGGGLVQAGGSLRLSCAASARAFMNYIMGWFRQAPGKEREFVATISWSGVTTDYADNVKGRFTISRDNAKNTVSLQMNSLKPEDTAIYYCAAKSAVGYYSDIYNSRAKEYDYWGQGTQVTVSS
notes: as for B1
Consider B16, for which the binding result with GFP protein is on record as “binds”.

These data come from patent publication US20240287501A1 (VIB VZW, published 2024).
